The target in this data set is T1, HIS-MYB2 (Arabidopsis thaliana, UniProt Q39028 1-273).
T1 sequence: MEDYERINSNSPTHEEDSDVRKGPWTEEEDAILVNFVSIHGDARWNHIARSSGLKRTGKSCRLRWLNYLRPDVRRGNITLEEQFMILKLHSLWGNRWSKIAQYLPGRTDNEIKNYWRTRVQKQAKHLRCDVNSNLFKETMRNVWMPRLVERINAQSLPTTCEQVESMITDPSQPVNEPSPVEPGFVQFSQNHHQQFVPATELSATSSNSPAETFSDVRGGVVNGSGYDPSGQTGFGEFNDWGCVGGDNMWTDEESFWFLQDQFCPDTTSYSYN
Kind of data set: EMSA; EMSA binding buffer (Beyotime Chemiluminescent EMSA kit, composition and pH not stated), 30 min at 25 °C. The note with it: protein: recombinant; tags: His (pET-30a); label: biotin. In general terms: A gel shift assay detects complexes by their altered migration in electrophoresis.

This is an account of results in article PMC8998314, “MYB2 Is Important for Tapetal PCD and Pollen Development by Directly Activating Protease Expression in Arabidopsis”.

B1: CEP1 short probe(s) with AAACCA (dsDNA)
DNA 1: GCTCCTGAAAACCATAATCAGA
DNA 2: TCTGATTATGGTTTTCAGGAGC
For the molecule B1, the binding result is on record as “binds”.

B2: CEP1 short probe with TAACTG (dsDNA)
DNA 1: TTAGACAACAGTTATTGTAATG
DNA 2: CATTACAATAACTGTTGTCTAA
As to B2, the binding result is recorded as “binds”.
